Measurements from patent US20180021429A1, “ANTICANCER AGENTS OR ANTIMETASTATIC AGENTS USING FSTL1 AND COMBINATION DRUG THEREOF” (PHARMA FOODS INTERNATIONAL CO., LTD., priority 2015, published 2018).
Numbering of substitutions follows the chain as printed. “Also recorded” adds a separate entry of the source.

B1: #6-55: chicken-mouse chimeric anti-FSTL1 antibody clone; variable regions SEQ ID NO: 783 (light), 785 (heavy) (antibody, V domains shown)
VH: AVTLDESGGGLQTPGGALSLVCKGSGFTFTSVTMQWVRQAPGKGLEWVASVCSGSSTYYAPAVKGRATISRDNGQSTVRLQLSNLRPEDTGTYYCAKIAGRARWSCTSAAYNIDAWGHGTEVIVSS
VL: ASTQPSSVSAIPGETVKITCSGGGNNYGWYQQRSPGSAPVTVIYYNDNRPSNIPSRFSGSTSGSTSTLTITGVQADDEAIYYCGSWDSNTDSGIFGAGTTLTVL
modifications: mouse constant regions
B2: #5-3: chicken-mouse chimeric anti-FSTL1 antibody clone; variable regions SEQ ID NO: 767 (light), 769 (heavy) (antibody, V domains shown)
VH: AVTLDESGGGLQTPGGALSLVCKGSGFSFSSFNMFWVRQAPGKGLEWVAGIGKDGVPKYGAAVDGRATISKDNGQSTMRLQLNNLRAEDTGTYFCAKAAGGCSYDWCGIYAGDIDTWGHGTEVIVSS
VL: ASTQPSSVSANPGETVKITCSGGSGYYYGWYQQKSPGSVPVTVIYNNNNRPSDIPSRFSGSKSGSTGTLTITGVRAEDEAVYYCGGYDNSGTGIFGAGTTLTVL
modifications: mouse constant regions
B3: #8-7: chicken-mouse chimeric anti-FSTL1 antibody clone; variable regions SEQ ID NO: 799 (light), 801 (heavy) (antibody, V domains shown)
VH: B2 VH with A17G, S28T, M78L
VL: ASTQPSSVSANPGEAVKITCSGGSGSYYGWYQQKSPGSAPVTVIYNNNQRPSDIPSRFSGSKSGSTATLTITGVQAEDEAVYFCGGYDSSTGHGGIFGAGTTLTVL
modifications: mouse constant regions
B4: #5-8: chicken-mouse chimeric anti-FSTL1 antibody clone; variable regions SEQ ID NO: 771 (light), 773 (heavy) (antibody, V domains shown)
VH: B2 VH with A17G, S28T, A61T, A111T
VL: B3 VL
modifications: mouse constant regions
B5: #8-4: chicken-mouse chimeric anti-FSTL1 antibody clone; variable regions SEQ ID NO: 795 (light), 797 (heavy) (antibody, V domains shown)
VH: AVTLDESGGGLQTPGGGLSLVCKGSGFTLSSFNMFWVRQAPGKGLEWVAGVGKDGGTAYGAAVDGRATISRDSGQSTVRLQLNNLRAEDTGTYFCAKAAGGCSYSWCGAYVGDLDAWGHGTEVIVSS
VL: B2 VL with T3S, V39A, N48D, R50K, R75Q, A76V, Y83F
modifications: mouse constant regions
B6: #5-2: chicken-mouse chimeric anti-FSTL1 antibody clone; variable regions SEQ ID NO: 763 (light), 765 (heavy) (antibody, V domains shown)
VH: B5 VH with L29F, A58G, R71K, S73N, V78L, F94Y, S105G, A109S, L114I
VL: B3 VL
modifications: mouse constant regions

Tested on: human pancreatic cancer cell line Panc1
Assay: Inhibitory activity against activation of tumor cell by FSTL1, RANKL-/CCR2-positive cells (Examples 5, 7, 9-11)
Format: cell-based
Method: It is known that tumor cells activated by stimulation with FSTL1 highly express molecule groups promoting bone metastasis and increase metastatic invasive capacity (Cancer Research 73: 6185, 2013). Thus, […] cells/well of a human pancreatic cancer cell line Panc1 were suspended in 1 mL/well of D-MEM medium (GIBCO/Thermo Fisher Scientific Inc. Cat. No. C11885500BT) containing 10% fetal bovine serum, supplemented with 50 ng/mL (final concentration) of FSTL1 (R&D Systems, Inc.) and 10 μg/mL of the anti-FSTL1 antibody (#5-2, #5-8, #5-10, #5-43, #6-55, or #7-34) or its isotype mouse IgG (anti-DNP antibody) as a control antibody “Control”, and cultured under stimulation (6-well plate). 3 days thereafter, the number of cells was counted while the cells were stained with a PE-labeled anti-RANKL antibody (eBioscience Cat. No. 12-6619) and a PE-labeled anti-CCR2 antibody (R&D Systems, Inc. Cat. No. FAB151P) in order to examine the expression of markers indicating bone metastatic properties, and the contents of RANKL-positive cells and CCR2-positive cells were analyzed by flow cytometry using FACScan (Becton, Dickinson and Company) to calculate the numbers of cells per culture. […] Therefore, in Examples below, judgment was made with the number of cells as an index.
In the same way as in Example 5, a human pancreatic cancer cell line Panc1 was supplemented with 50 ng/mL (final concentration) of FSTL1 (R&D Systems, Inc.) and 10 μg/mL of the anti-FSTL1 antibody (the same clones as in Example 6) or a control antibody and cultured under stimulation.
3 days thereafter, the number of cells was counted while the cells were stained with a PE-labeled anti-RANKL antibody and a PE-labeled anti-CCR2 antibody, and the contents of RANKL-positive cells and CCR2-positive cells were analyzed by flow cytometry using FACScan (Becton, Dickinson and Company) to calculate the numbers of cells per culture (FIG. 5B).
(§1) In the same way as in Example 5, a human pancreatic cancer cell line Panc1 was supplemented with 20 ng/mL (final concentration) of FSTL1 and 10 μg/mL of the anti-FSTL1 antibody (#5-2, #5-8, or #6-55) or a control antibody and cultured under stimulation. 3 days thereafter, the number of cells was counted while the cells were stained with a PE-labeled anti-RANKL antibody and a PE-labeled anti-CCR2 antibody, and the contents of RANKL-positive cells and CCR2-positive cells were analyzed by flow cytometry using FACScan (Becton, Dickinson and Company) to calculate the numbers of cells per culture (FIG. 6B).
as §1, with “50” for “20”, “#5-3, #6-55, #7-34, #8-1, #8-4, #8-7,” for “#5-8,”, “#8-8)” for “#6-55)”, “culture.” for “culture (FIG. 6B).”
In the same way as in Example 5, a human pancreatic cancer cell line Panc1 was supplemented with 50 ng/mL (final concentration) of FSTL1 and 10 μg/mL of the anti-FSTL1 antibody (#6-55) or a control antibody and cultured under stimulation. 3 days thereafter, the number of cells was counted while the cells were stained with a PE-labeled anti-RANKL antibody and a PE-labeled anti-CCR2 antibody, and the contents of RANKL-positive cells and CCR2-positive cells were analyzed by flow cytometry using FACScan (Becton, Dickinson and Company) to calculate the numbers of cells per culture.
It is known that tumor cells activated by stimulation with FSTL1 highly express molecule groups promoting bone metastasis and increase metastatic invasive capacity (Cancer Research 73: 6185, 2013). […]

[1] = Example 9, FIG. 6B/36B, FSTL1 20 ng/mL, antibody 10 μg/mL, 3 days
[2] = Example 10, FIG. 6C/36C, FSTL1 50 ng/mL, antibody 10 μg/mL, 3 days
[3] = Example 7, FIG. 5B/35B, FSTL1 50 ng/mL, antibody 10 μg/mL, 3 days

Row | Molecule | inhibitory activity against the expansion of RANKL-positive cells and CCR2-positive cells [1] | inhibitory activity against the expansion of RANKL-positive cells and CCR2-positive cells [2] | inhibitory activity against the expansion of RANKL-positive cells and CCR2-positive cells [3] | further results
1 | B1 | exhibited inhibitory activity against the expansion of RANKL-positive cells and CCR2-positive cells; also recorded: higher inhibitory activity | high inhibitory activity; also recorded: higher inhibitory activity | – | dose dependence of the antibody (Example 11, FIG. 6D/36D, 5, 10, 20 μg/mL): the dose dependence of antibody was not confirmed; also recorded: the dose dependence of the antibody was not confirmed; inhibitory activity against the expansion of RANKL-positive cells and CCR2-positive cells (Example 11, FIG. 6D/36D, FSTL1 50 ng/mL, at all tested doses 5, 10 and 20 μg/mL): ~100%; inhibition of cell induction of RANKL-positive cells and CCR2-positive cells (Example 11, FIG. 6D/36D, dose dependence test): exhibited inhibitory activity; also recorded: strongly inhibited the cell induction of both RANKL-positive cells and CCR2-positive cells at the same time
2 | B2 | – | – | higher inhibitory activity | –
3 | B3 | – | high inhibitory activity; also recorded: higher inhibitory activity | – | –
4 | B4 | exhibited inhibitory activity against the expansion of RANKL-positive cells and CCR2-positive cells; also recorded: higher inhibitory activity | – | higher inhibitory activity | –
5 | B5 | – | high inhibitory activity; also recorded: higher inhibitory activity | – | –
6 | B6 | – | high inhibitory activity; also recorded: higher inhibitory activity | – | –
